In the FLAb antibody collection (doi:10.1101/2023.12.08.570889):
Where a chain is given by its changes, count along the chain named. Blank lines part the entries; values can stand above or below the binder they belong to.

Target: TSLP, Q969D9
Experiment: Kd (SPR)

B1: unnamed (protein)
chain 1: QMQLVESGGGVVQPGRSLRLSCAASGFTFRTYGMHWVRQAPGKGLEWVAVIWYDGSNKHYADSVKGRFTITRDNSKNTLNLQMNSLRAEDTAVYYCARAPRYDDLYEAFDVWGQGTMVTVSS
chain 2: SYVLTQPPSVSVAPGQTARITCGGNNLGSKSVHWYQQKPGQAPVLVVYDDSDRPSWIPERFSGSNSGNTATLTISRGEAGDEADYYCQVWDSSSDHVVFGGGTKLTVL
Kd: 122 nM

B3: unnamed (protein)
chain 1: B1 chain 1 with A99S, L105Y, Y106L
chain 2: B1 chain 2
Kd: 228 nM

B4: unnamed (protein)
chain 1: B1 chain 1 with D104W, L105A
chain 2: B1 chain 2
Kd: 404 nM

B6: unnamed (protein)
chain 1: B1 chain 1 with L105R
chain 2: B1 chain 2
Kd: 241 nM

B8: unnamed (protein)
chain 1: B1 chain 1 with D104F, L105Y
chain 2: B1 chain 2
Kd: 116 nM

B10: unnamed (protein)
chain 1: B1 chain 1 with A99S, D104E, L105Y
chain 2: B1 chain 2
Kd: 242 nM

B11: unnamed (protein)
chain 1: B1 chain 1 with D104E, L105R, Y106W
chain 2: B1 chain 2
Kd: 494 nM

B12: unnamed (protein)
chain 1: B1 chain 1 with A99S, D104E, L105Y, Y106W
chain 2: B1 chain 2
Kd: 369 nM

B15: unnamed (protein)
chain 1: B1 chain 1 with D104E, L105Y, E107D
chain 2: B1 chain 2
Kd: 293 nM

B18: unnamed (protein)
chain 1: B1 chain 1 with A99S, D104W, L105Y, Y106L
chain 2: B1 chain 2
Kd: 335 nM

B19: unnamed (protein)
chain 1: B1 chain 1 with A99S, D104Y, L105Y
chain 2: B1 chain 2
Kd: 337 nM

Now those with a lower Kd, led by results:

Kd: 109 nM
B16: unnamed (protein)
chain 1: B1 chain 1 with D104Y, L105Y, Y106V
chain 2: B1 chain 2

Kd: 104 nM
B5: unnamed (protein)
chain 1: B1 chain 1 with D104Y, L105E
chain 2: B1 chain 2

Kd: 103 nM
B2: unnamed (protein)
chain 1: B1 chain 1 with D104E, L105A
chain 2: B1 chain 2

Kd: 102 nM
B17: unnamed (protein)
chain 1: B1 chain 1 with D104W, L105E
chain 2: B1 chain 2

Kd: 99.9 nM
B9: unnamed (protein)
chain 1: B1 chain 1 with L105Y, Y106L
chain 2: B1 chain 2

Kd: 99.6 nM
B7: unnamed (protein)
chain 1: B1 chain 1 with L105A
chain 2: B1 chain 2

Kd: 86.2 nM
B13: unnamed (protein)
chain 1: B1 chain 1 with L105T
chain 2: B1 chain 2

Kd: 72.3 nM
B14: unnamed (protein)
chain 1: B1 chain 1 with A99S, D103Y, L105Y, Y106W
chain 2: B1 chain 2
